Data published in patent US7645449B2, “Sensitizing cells for apoptosis by selectively blocking cytokines” (priority 2003, dated 2010).

Legend:
Format in all cases: cell-based, human
[1] = system: Bcl-xL and cFlip/FLAME-1 in bladder tumor cells (RT112); test: Western blot of apoptosis-related proteins in RT112 cells
Method: The observation that tumor cells treated with IL-4 display a reduced sensitivity to chemotherapeutic drugs led us to investigate whether this cytokine would influence the expression of apoptosis regulatory genes. Western blot analysis of apoptosis-related proteins was performed on cancer cell lines treated for 48 hours with IL-4 as compared to untreated or IL-2-treated controls. […] The increased expression of cFlip/FLAME-1 prompted us to investigate if IL-4 could protect tumor cells from death receptor stimulation. CD95 ligand (CD95L) is one of the major effector molecules of cytotoxic T lymphocytes and NK cells.
(§1) Cell pellets were washed twice with cold PBS and lysed on ice for 30 minutes with 1% NP40 lysis buffer (20 mM Tris-HCl pH 7.2, 200 mM NaCl, 1% NP40) in the presence of 1 mM phenylmethylsulphonyl fluoride (PMSF) and 2 μg/ml each of aprotinin, leupeptin and pepstatin. Cell debris was removed by centrifugation at 13,000 rpm for 10 minutes at 4° C. Lysate concentration was determined using the Bio-Rad protein assay (Bio-Rad Laboratories, Richmond, Calif.). Aliquots of cell extracts containing 30 μg of total protein were resolved on 10% or 12% SDS-PAGE and transferred to a Hybond-C extra nitrocellulose membrane (Amersham Pharmacia Biotech, Piscataway, N.J.). […]

[2] = system: LNCaP prostate cancer cells; test: MTS viability of LNCaP cells: chemotherapy- and anti-CD95-induced apoptosis
Method: (§2) Human LNCAP prostate cancer cell line and human MDA-MB-231 breast cancer cell line were obtained from the American Type Culture Collection (ATCC, Manassas, Va.). Human RT112 bladder carcinoma cell line was kindly provided by Dr. M. Cippitelli (Regina Elena Cancer Institute, Rome, Italy). Cells were grown in RPMI 1640 (Life Technologies Inc., Grand Island, N.Y.) containing 10% heat inactivated fetal bovine serum supplemented with L-Glutamine 2 mM and 100 units/ml Penicillin-Streptomycin. Cells were kept in 5% CO2 atmosphere and routinely passaged when 80-85% confluent. […]
(§3) Cell viability was determined using the CellTiter 96® AQueous One Solution Cell Proliferation Assay (Promega, Madison, Wis.), according to the manufacturer's instructions. The assay is based on reduction of 3-(4,5-dimethylthiazol-2-yl)-5-(3-carboxymethoxyphenyl)-2-(4-sulfophenyl)-2H-tetrazolium, inner salt (MTS) to a colored formazan product that is measured spectrophotometrically. […] After 3 hours of incubation at 37° C. with the MTS reagent, the plates were read on a Multilabel Counter (Victor2, Wallac, Perkin-Ehmer Inc., Norwalk, Conn.) and dye absorbance was measured at 490 nm.
(§4) The percentage of apoptotic cells was derived from the percentage of viable cells that was directly calculated from the values of the MTS assay.

[3] = system: MDA-MB-231 breast cancer cells; test: MTS viability of MDA-MB-231 cells: chemotherapy- and anti-CD95-induced apoptosis
Method: as §2, §3, §4

[4] = system: cFlip/FLAME-1 in MDA-MB-231 cells; test: Immunoblot of Bcl-XL and cFlip/FLAME-1 in MDA-MB-231 cells; details: following IL-4 treatment
Method: The observation that prostate and breast tumor cells treated with IL-4 display a reduced sensitivity to death induced by CD95 and chemotherapeutic drugs led us to investigate whether this cytokine would influence the expression of apoptosis regulatory genes. […] Therefore, IL-4-mediated increased survival in bladder, prostate and breast cancer cells is associated with upregulation of anti-apoptotic proteins.
as §1

[5] = cytokine pretreatment, 30 ng/ml anti-CD95 agonistic antibody

B1: IL-4: human recombinant IL-4 (protein, UniProt P05112 25-153, looked up)
Interleukin-4: HKCDITLQEIIKTLNSLTEQKTLCTELTVTDIFAASKNTTEKETFCRAATVLRQFYSHHEKDTRCLGATAQQFHRHKQLIRFLKRLDRNLWGLAGLNSCPVKEANQSTLENFLERLKTIMREKYSKCSS
- levels of caspases and other pro- and anti-apoptotic Bcl-2 family members ([1]; 48 hours with IL-4): remained unchanged
- levels of Bcl-xL and cFlip/FLAME-1 ([1]; 48 hours with IL-4, compared to untreated or IL-2-treated controls): increased
- anti-CD95-induced apoptosis of LNCaP cells [2, 5]: greatly reduced anti-CD95-induced apoptosis
- drug-induced death of LNCaP cells ([2]; two days cytokine pretreatment (20 ng/ml), 300 ng/ml cisplatin or 1 μM vincristine): significantly protected from drug-induced death
- anti-CD95-induced apoptosis of MDA-MB-231 cells [3, 5]: greatly reduced anti-CD95-induced apoptosis
- drug-induced death of MDA-MB-231 cells ([3]; two days cytokine pretreatment (20 ng/ml), 300 ng/ml cisplatin or 5 μM daunorubicin): significantly protected from drug-induced death
- cFlip/FLAME-1 level in MDA-MB-231 cells [4]: only a modest increase
